Here are results for nine molecules from patent publication US20240254227A1 (Alector, published 2024).

Holding throughout (assay): SPR (Carterra LSA), antibody immobilised
Assay [1] has as its target T1, human CD300D-Fc (human).
T1 construct: hIgG1-Fc fusion; the entry is the whole fusion chain
T1 chain: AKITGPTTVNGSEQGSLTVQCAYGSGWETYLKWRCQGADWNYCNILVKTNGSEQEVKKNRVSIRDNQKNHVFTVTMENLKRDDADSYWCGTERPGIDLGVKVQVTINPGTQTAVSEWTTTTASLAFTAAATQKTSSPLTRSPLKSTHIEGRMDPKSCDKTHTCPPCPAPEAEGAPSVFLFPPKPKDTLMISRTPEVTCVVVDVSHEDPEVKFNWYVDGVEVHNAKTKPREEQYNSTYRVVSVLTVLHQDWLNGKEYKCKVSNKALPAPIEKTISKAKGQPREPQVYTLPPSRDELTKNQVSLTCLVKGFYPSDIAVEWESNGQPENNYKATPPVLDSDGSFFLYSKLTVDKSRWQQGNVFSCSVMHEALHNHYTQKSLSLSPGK
The gist of the method: (§1)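 Mouse anti-CD300LB IgG1 antibodies were amine-coupled in a 96-spot array on an HC200M chip; Fc-fused CD300 ectodomains (human on hIgG1-Fc) flowed over as analytes at 300 nM or 600 nM in HBS-TE with 0.5 mg/ml BSA, injected in series without regeneration, with kinetics fitted by high-throughput analysis.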

In assay [2] the target is T2, murine CD300C-Fc (mouse).
T2 construct: mouse IgG2a-Fc fusion (R&D Systems); the entry is the whole fusion chain; also called mCD300C; Mouse CD300C-Fc
T2 chain: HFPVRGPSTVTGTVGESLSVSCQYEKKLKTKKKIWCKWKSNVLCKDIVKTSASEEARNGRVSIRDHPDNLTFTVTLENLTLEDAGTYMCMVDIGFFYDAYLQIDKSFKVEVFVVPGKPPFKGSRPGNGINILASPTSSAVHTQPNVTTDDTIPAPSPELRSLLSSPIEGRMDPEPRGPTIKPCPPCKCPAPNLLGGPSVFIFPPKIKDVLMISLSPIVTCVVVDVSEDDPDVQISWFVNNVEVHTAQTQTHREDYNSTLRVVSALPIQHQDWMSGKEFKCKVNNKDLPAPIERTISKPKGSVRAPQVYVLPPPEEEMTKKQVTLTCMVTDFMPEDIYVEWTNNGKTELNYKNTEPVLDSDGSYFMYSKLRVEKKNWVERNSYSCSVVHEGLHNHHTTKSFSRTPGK
The gist of the method: as §1

The target of assay [3] is T3, murine CD300D-Fc (mouse).
T3 construct: mouse IgG2a-Fc fusion (R&D Systems); the entry is the whole fusion chain; also called mCD300D; Mouse CD300D-Fc
T3 chain: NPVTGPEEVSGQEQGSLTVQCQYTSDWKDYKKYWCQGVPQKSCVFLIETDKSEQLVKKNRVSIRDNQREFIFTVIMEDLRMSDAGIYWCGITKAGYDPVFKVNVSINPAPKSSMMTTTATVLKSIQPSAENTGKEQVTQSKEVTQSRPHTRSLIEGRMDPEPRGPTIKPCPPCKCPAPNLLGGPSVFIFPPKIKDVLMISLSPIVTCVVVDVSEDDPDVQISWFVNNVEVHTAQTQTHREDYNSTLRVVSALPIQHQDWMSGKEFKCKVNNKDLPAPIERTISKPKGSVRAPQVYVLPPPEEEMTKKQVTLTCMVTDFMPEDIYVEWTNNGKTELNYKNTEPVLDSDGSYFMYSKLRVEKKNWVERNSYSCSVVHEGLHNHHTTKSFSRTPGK
The gist of the method: as §1

B1: anti-CD300LB antibody CD-02 (antibody, V domains shown)
VH: QVQLQQPGAELVRPGSSVKLSCQASGYTFTNYWMHWVRQRPIQGLEWIGNIDPSDSETHYNQKFKDRATLTVDKSSSTAYMQLSSLTSEDSAVYYCARSGVYDDEGGDYWGQGTTLTVSS
VL: ENVLTQSPAIMSASPGEKVTMTCSASSSVSYIHWYQQKSSTSPKLWIYDTSKLASGVPGRFSGSGSGNSYSLTISSMETEDVATYYCFQGSGYPLTFGAGTKLELK
On to B1, for which the binding result in assay [1] is on record as “no binding (tested: 300 nM or 600 nM)”.

B2: anti-CD300LB antibody CD-03 (antibody, V domains shown)
VH: EVQLQQSGPELVKPGASVKISCKASGYTFTDYYINWVRQSHGKSLECIGDINPNNGGTNYNQKFKGKATLTVDRSSNTAYMEFRSLTFDDSALYYCAAEGAYWGQGTLVTVSA
VL: not shown
Regarding B2, the binding result in assay [1] is reported as “no binding (tested: 300 nM or 600 nM)”.

B3: anti-CD300LB antibody CD-05 (antibody, V domains shown)
VH: QVQLVQSGAEVKKPGASVKVSCKASGYTFSRYYINWVRQAPGQGLEWMGWINPNSGGTNYAQKFQGRVTMTRDTSTSTVYMELSSLRSEDTAVYYCTTDQLRFGKTGPYYGMDVWGQGTTVTVSS
VL: DIQMTQSPSSLSASVGDRVTITCRASQNIGTYLNWYQQKPGKAPKLLIYAASSLQSGVPSRFSGSGSGTDFTLTISSLQPEDFATYYCQQSYSDTLTFGGGTKVEIK
Take B3: the binding result in assay [1] is recorded as “no binding (tested: 300 nM or 600 nM)”.

B4: anti-CD300LB antibody CD-12 (antibody, V domains shown)
VH: QIQLVQSGPELKKPGETVKISCKASGYTFTDYSMHWVRQAPGKGLKWMAWINTETGEATHADDFKGRFDFSLDTSASTAYLQIKNLKNEDTGIYFCVCYGSSYGMDYWGQGTSVTVSS
VL: DIVLTQSPASLPVSLGQRATISCRASKSVRTSGASYMHWYQQKPGQPPKLLIYLASNLKSGVPTRFSGSGSGTDFTLNIHPVEEEDAATYYCQHNREVPPTFGGGTKLEIK
With B4, the binding result in assay [2] and in assay [3] was “no binding (tested: 300 nM or 600 nM)” throughout.

B5: anti-CD300LB antibody CD-15 (antibody, V domains shown)
VH: QIQLVQSGPELKKPGETVKISCQVSGYTFTDYSMHWLKQAPGKGLKWMAWINTETGESTYTDEFKGRFVFSLETSVRTAYLKINNLKNEDTATYFCGTYGSSYGMAYWGQGTSVTVSS
VL: DIVLTQSPASLPVSLGQRATISCRASKSVSTSGSSYLHWYQQKPGQPPKLLIYLASKLESGVPARFRGSGSGTDFTLNIHPVEEEDAATYYCQHNREVPPTFGGGTKLEIK
Consider B5, for which the binding result in assay [3] is on record as “no binding (tested: 300 nM or 600 nM)”.

B6: anti-CD300LB antibody CD-17 (antibody, V domains shown)
VH: QIQLVQSGPELKKPGETVKISCKASGYTLTDYSMHWVKQAPGKGLKWMGWINTETGEPRYGDDFKGRFAFSLETSASSAYLQINNLKNDDTATYFCATYGRSYGMDFWGQGTSVTVSS
VL: DIVLTQSPASLAVSLGQRATISCRASKSVSPSGHSYMHWYQQKPGQPPKLLIYLASNLKSGVPARFSGSGSGTDFTLNIHPVEEGDAATYYCQHNRELPPTFGGGSKLEIK
On to B6, for which the binding result in assay [2] and in assay [3] was “no binding (tested: 300 nM or 600 nM)” in each case.

B7: anti-CD300LB antibody CD-01 (antibody, V domains shown)
VH: RVQLQQSGAELVRPGASVTLSCKASGFTFTDFEMHWVKKTPVHGLEWIGAIDPESGNTAYNQKFRGKATLTADKSSSTAYMELRYLTSEDSAVYYCTPLISGADYWGQGTTLTVSS
VL: DVVMTQSPLSLPVSLGDQASISCRSSQSLVHSDGNTYLYWYLQKPGQSPKLLIYKVSNRFSGVPDRFSGSGSGTDFTFKISRVGAEDLGVYFCSQSTHVPWTFGGGTKLEII
Take B7: the binding result in assay [1] is reported as “no binding (tested: 300 nM or 600 nM)”.

B8: anti-CD300LB antibody CD-11 (antibody, V domains shown)
VH: QIQLVQSGPEVKKPGETVKISCKASGYTLTDYSMHWVMQTPGTGLKWMAWMNTETGEPTYADDFKGRFAFSLETSAGTAYLQIDNLKNEDTATYFCATYGKSYGMKYWGQGTSVTVSS
VL: DIVLTQSPPSLAVSLGQRATISCRATKSVSPYLHWYQQTPGQPPKLLIYLASNLDSGVPARFSGSGSGTDFTLNIHPVEEEDAATYYCQHNKELPPTFGGGTRLEIK
For B8, in assay [3], the binding result is listed as “no binding (tested: 300 nM or 600 nM)”.

B9: anti-CD300LB antibody CD-18 (antibody, V domains shown)
VH: DVQLQESGPDLVKPSQSLSLTCTVTGYSITSGYSWHWIRQFPDNKLEWMGYILSRGDTNFNPSLKSRISITRSTSNNQFFLHFNSVTTEDTATYYCARDFFDYWGQGTTLTVSS
VL: DVLMTQTPLSLPVSLGDQASISCRSSQSIVHSNGNTYLEWYLQKPGQSPKLLIYKVSDRFSGVPDRFSGSGSGTDFTLKISRVEAEDLGVYFCFQGSHVPYTFGGGTKLEIK
For B9, the binding result in assay [2] and in assay [3] was “no binding (tested: 300 nM or 600 nM)” in each case.
